Source: US20140087995A1 (published 2014)
Values belong to the binder of their own block, whether it stands above or below them. Numbered stars: 1 amine (or outer) side, 2 acyl side, 3 side chain; on linkers, the order of the positions; unused ones are H or OH. Bridge positions count the residues as written; N and C are the ends. Side chains are listed from the residue outwards. Ends that are not written are not given here. * marks the point of attachment. C20 diacid = O=C(O)CCCCCCCCCCCCCCCCCCC(=O)*; γGlu = O=C(O)[C@H](CCC(=O)[*:2])N[*:1]; AEEA = NCCOCCOCC(=O)O

Molecular target: T1, human amylin receptor (amylin 3(a) receptor: human calcitonin receptor with RAMP-3) (human, UniProt P30988 25-474; O60896 24-148)
T1 construct: whole, on cells; also called hAmylin-R; hAmylinR
T1 sequence (looked up) 1: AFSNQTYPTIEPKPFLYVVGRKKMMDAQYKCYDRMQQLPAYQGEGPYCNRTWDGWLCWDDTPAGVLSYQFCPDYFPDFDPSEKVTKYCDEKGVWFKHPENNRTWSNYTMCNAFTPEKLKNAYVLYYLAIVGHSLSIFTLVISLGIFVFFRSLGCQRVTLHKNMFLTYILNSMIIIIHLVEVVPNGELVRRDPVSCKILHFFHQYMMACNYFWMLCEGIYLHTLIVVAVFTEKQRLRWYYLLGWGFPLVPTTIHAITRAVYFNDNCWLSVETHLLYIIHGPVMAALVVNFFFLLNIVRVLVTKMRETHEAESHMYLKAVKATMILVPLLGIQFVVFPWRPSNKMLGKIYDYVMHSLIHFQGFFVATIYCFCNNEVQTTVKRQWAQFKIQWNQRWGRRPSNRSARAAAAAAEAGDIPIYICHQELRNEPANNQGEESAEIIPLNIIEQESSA
T1 sequence (looked up) 2: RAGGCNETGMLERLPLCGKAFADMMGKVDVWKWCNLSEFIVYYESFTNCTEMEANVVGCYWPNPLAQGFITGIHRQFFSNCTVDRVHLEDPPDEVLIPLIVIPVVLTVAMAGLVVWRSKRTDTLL
Assay: SPA displacement of 125I-rat amylin, hAmylin 3(a) receptor membranes
In short: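 One-site competition analysis of SPA counts yielded IC₅₀ as a measure of affinity. Membranes were at 35 ng/μL final; incubation was 120 min at 25° C, pH 7.4.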

IC50: 42 pM
B1: N^ε1-[2-[2-[2-[[(4S)-4-carboxy-4-(19-carboxynonadecanoylamino)butanoyl]amino]ethoxy]ethoxy]acetyl]-[Arg17,Pro21,Pro27,Pro28,Pro34]-h-amylin (peptide)
peptide: K([AEEA-γGlu-C20 diacid])CNTATCATQRLANFLRHSSPNFGAIPPSTNVGPNTY-NH2
modifications: disulfide 2-7; N-terminus assumed
SMILES: CC[C@H](C)[C@H](NC(=O)[C@H](C)NC(=O)CNC(=O)[C@H](Cc1ccccc1)NC(=O)[C@H](CC(N)=O)NC(=O)[C@@H]1CCCN1C(=O)[C@H](CO)NC(=O)[C@H](CO)NC(=O)[C@H](Cc1c[nH]cn1)NC(=O)[C@H](CCCNC(=N)N)NC(=O)[C@H](CC(C)C)NC(=O)[C@H](Cc1ccccc1)NC(=O)[C@H](CC(N)=O)NC(=O)[C@H](C)NC(=O)[C@H](CC(C)C)NC(=O)[C@H](CCCNC(=N)N)NC(=O)[C@H](CCC(N)=O)NC(=O)[C@@H](NC(=O)[C@H](C)NC(=O)[C@@H]1CSSC[C@H](NC(=O)[C@@H](N)CCCCNC(=O)COCCOCCNC(=O)CC[C@H](NC(=O)CCCCCCCCCCCCCCCCCCC(=O)O)C(=O)O)C(=O)N[C@@H](CC(N)=O)C(=O)N[C@@H]([C@@H](C)O)C(=O)N[C@@H](C)C(=O)N[C@@H]([C@@H](C)O)C(=O)N1)[C@@H](C)O)C(=O)N1CCC[C@H]1C(=O)N1CCC[C@H]1C(=O)N[C@@H](CO)C(=O)N[C@H](C(=O)N[C@@H](CC(N)=O)C(=O)N[C@H](C(=O)NCC(=O)N1CCC[C@H]1C(=O)N[C@@H](CC(N)=O)C(=O)N[C@H](C(=O)N[C@@H](Cc1ccc(O)cc1)C(N)=O)[C@@H](C)O)C(C)C)[C@@H](C)O
notes: also called 55; compound 55

IC50: 115 pM
B2: N^ε1-[2-[2-[2-[[(4S)-4-carboxy-4-(19-carboxynonadecanoylamino)butanoyl]amino]ethoxy]ethoxy]acetyl]-[Arg17,Pro21,Pro27,Pro31,His35]-h-amylin (peptide)
peptide: K([AEEA-γGlu-C20 diacid])CNTATCATQRLANFLRHSSPNFGAIPSSTPVGSHTY-NH2
modifications: disulfide 2-7; N-terminus assumed
SMILES: CC[C@H](C)[C@H](NC(=O)[C@H](C)NC(=O)CNC(=O)[C@H](Cc1ccccc1)NC(=O)[C@H](CC(N)=O)NC(=O)[C@@H]1CCCN1C(=O)[C@H](CO)NC(=O)[C@H](CO)NC(=O)[C@H](Cc1c[nH]cn1)NC(=O)[C@H](CCCNC(=N)N)NC(=O)[C@H](CC(C)C)NC(=O)[C@H](Cc1ccccc1)NC(=O)[C@H](CC(N)=O)NC(=O)[C@H](C)NC(=O)[C@H](CC(C)C)NC(=O)[C@H](CCCNC(=N)N)NC(=O)[C@H](CCC(N)=O)NC(=O)[C@@H](NC(=O)[C@H](C)NC(=O)[C@@H]1CSSC[C@H](NC(=O)[C@@H](N)CCCCNC(=O)COCCOCCNC(=O)CC[C@H](NC(=O)CCCCCCCCCCCCCCCCCCC(=O)O)C(=O)O)C(=O)N[C@@H](CC(N)=O)C(=O)N[C@@H]([C@@H](C)O)C(=O)N[C@@H](C)C(=O)N[C@@H]([C@@H](C)O)C(=O)N1)[C@@H](C)O)C(=O)N1CCC[C@H]1C(=O)N[C@@H](CO)C(=O)N[C@@H](CO)C(=O)N[C@H](C(=O)N1CCC[C@H]1C(=O)N[C@H](C(=O)NCC(=O)N[C@@H](CO)C(=O)N[C@@H](Cc1c[nH]cn1)C(=O)N[C@H](C(=O)N[C@@H](Cc1ccc(O)cc1)C(N)=O)[C@@H](C)O)C(C)C)[C@@H](C)O
notes: also called 57; compound 57

IC50: 88 pM
B3: N^ε1-[2-[2-[2-[[(4S)-4-carboxy-4-(19-carboxynonadecanoylamino)butanoyl]amino]ethoxy]ethoxy]acetyl]-[Arg17,Pro21,Pro27,Pro34,His35]-h-amylin (peptide)
peptide: K([AEEA-γGlu-C20 diacid])CNTATCATQRLANFLRHSSPNFGAIPSSTNVGPHTY-NH2
modifications: disulfide 2-7; N-terminus assumed
SMILES: CC[C@H](C)[C@H](NC(=O)[C@H](C)NC(=O)CNC(=O)[C@H](Cc1ccccc1)NC(=O)[C@H](CC(N)=O)NC(=O)[C@@H]1CCCN1C(=O)[C@H](CO)NC(=O)[C@H](CO)NC(=O)[C@H](Cc1c[nH]cn1)NC(=O)[C@H](CCCNC(=N)N)NC(=O)[C@H](CC(C)C)NC(=O)[C@H](Cc1ccccc1)NC(=O)[C@H](CC(N)=O)NC(=O)[C@H](C)NC(=O)[C@H](CC(C)C)NC(=O)[C@H](CCCNC(=N)N)NC(=O)[C@H](CCC(N)=O)NC(=O)[C@@H](NC(=O)[C@H](C)NC(=O)[C@@H]1CSSC[C@H](NC(=O)[C@@H](N)CCCCNC(=O)COCCOCCNC(=O)CC[C@H](NC(=O)CCCCCCCCCCCCCCCCCCC(=O)O)C(=O)O)C(=O)N[C@@H](CC(N)=O)C(=O)N[C@@H]([C@@H](C)O)C(=O)N[C@@H](C)C(=O)N[C@@H]([C@@H](C)O)C(=O)N1)[C@@H](C)O)C(=O)N1CCC[C@H]1C(=O)N[C@@H](CO)C(=O)N[C@@H](CO)C(=O)N[C@H](C(=O)N[C@@H](CC(N)=O)C(=O)N[C@H](C(=O)NCC(=O)N1CCC[C@H]1C(=O)N[C@@H](Cc1c[nH]cn1)C(=O)N[C@H](C(=O)N[C@@H](Cc1ccc(O)cc1)C(N)=O)[C@@H](C)O)C(C)C)[C@@H](C)O
notes: also called 58; compound 58

IC50: 30 pM
B4: N^ε1-[2-[2-[2-[[(4S)-4-carboxy-4-(19-carboxynonadecanoylamino)butanoyl]amino]ethoxy]ethoxy]acetyl]-[Arg17,Pro21,Pro27,Pro29,Pro31]-h-amylin (peptide)
peptide: K([AEEA-γGlu-C20 diacid])CNTATCATQRLANFLRHSSPNFGAIPSPTPVGSNTY-NH2
modifications: disulfide 2-7; N-terminus assumed
SMILES: CC[C@H](C)[C@H](NC(=O)[C@H](C)NC(=O)CNC(=O)[C@H](Cc1ccccc1)NC(=O)[C@H](CC(N)=O)NC(=O)[C@@H]1CCCN1C(=O)[C@H](CO)NC(=O)[C@H](CO)NC(=O)[C@H](Cc1c[nH]cn1)NC(=O)[C@H](CCCNC(=N)N)NC(=O)[C@H](CC(C)C)NC(=O)[C@H](Cc1ccccc1)NC(=O)[C@H](CC(N)=O)NC(=O)[C@H](C)NC(=O)[C@H](CC(C)C)NC(=O)[C@H](CCCNC(=N)N)NC(=O)[C@H](CCC(N)=O)NC(=O)[C@@H](NC(=O)[C@H](C)NC(=O)[C@@H]1CSSC[C@H](NC(=O)[C@@H](N)CCCCNC(=O)COCCOCCNC(=O)CC[C@H](NC(=O)CCCCCCCCCCCCCCCCCCC(=O)O)C(=O)O)C(=O)N[C@@H](CC(N)=O)C(=O)N[C@@H]([C@@H](C)O)C(=O)N[C@@H](C)C(=O)N[C@@H]([C@@H](C)O)C(=O)N1)[C@@H](C)O)C(=O)N1CCC[C@H]1C(=O)N[C@@H](CO)C(=O)N1CCC[C@H]1C(=O)N[C@H](C(=O)N1CCC[C@H]1C(=O)N[C@H](C(=O)NCC(=O)N[C@@H](CO)C(=O)N[C@@H](CC(N)=O)C(=O)N[C@H](C(=O)N[C@@H](Cc1ccc(O)cc1)C(N)=O)[C@@H](C)O)C(C)C)[C@@H](C)O
notes: also called 54; compound 54

IC50: 1190 pM
B5: N^ε1-[2-[2-[2-[[(4S)-4-carboxy-4-(19-carboxynonadecanoylamino)butanoyl]amino]ethoxy]ethoxy]acetyl]-[Arg17,Pro21,Pro27,Pro31]-h-amylin (peptide)
peptide: K([AEEA-γGlu-C20 diacid])CNTATCATQRLANFLRHSSPNFGAIPSSTPVGSNTY-NH2
modifications: disulfide 2-7; N-terminus assumed
SMILES: CC[C@H](C)[C@H](NC(=O)[C@H](C)NC(=O)CNC(=O)[C@H](Cc1ccccc1)NC(=O)[C@H](CC(N)=O)NC(=O)[C@@H]1CCCN1C(=O)[C@H](CO)NC(=O)[C@H](CO)NC(=O)[C@H](Cc1c[nH]cn1)NC(=O)[C@H](CCCNC(=N)N)NC(=O)[C@H](CC(C)C)NC(=O)[C@H](Cc1ccccc1)NC(=O)[C@H](CC(N)=O)NC(=O)[C@H](C)NC(=O)[C@H](CC(C)C)NC(=O)[C@H](CCCNC(=N)N)NC(=O)[C@H](CCC(N)=O)NC(=O)[C@@H](NC(=O)[C@H](C)NC(=O)[C@@H]1CSSC[C@H](NC(=O)[C@@H](N)CCCCNC(=O)COCCOCCNC(=O)CC[C@H](NC(=O)CCCCCCCCCCCCCCCCCCC(=O)O)C(=O)O)C(=O)N[C@@H](CC(N)=O)C(=O)N[C@@H]([C@@H](C)O)C(=O)N[C@@H](C)C(=O)N[C@@H]([C@@H](C)O)C(=O)N1)[C@@H](C)O)C(=O)N1CCC[C@H]1C(=O)N[C@@H](CO)C(=O)N[C@@H](CO)C(=O)N[C@H](C(=O)N1CCC[C@H]1C(=O)N[C@H](C(=O)NCC(=O)N[C@@H](CO)C(=O)N[C@@H](CC(N)=O)C(=O)N[C@H](C(=O)N[C@@H](Cc1ccc(O)cc1)C(N)=O)[C@@H](C)O)C(C)C)[C@@H](C)O
notes: also called 49; compound 49

IC50: 49 pM
B6: N^ε1-[2-[2-[2-[[(4S)-4-carboxy-4-(19-carboxynonadecanoylamino)butanoyl]amino]ethoxy]ethoxy]acetyl]-[Arg17,Pro21,Pro27,Pro29,Pro34]-h-amylin (peptide)
peptide: K([AEEA-γGlu-C20 diacid])CNTATCATQRLANFLRHSSPNFGAIPSPTNVGPNTY-NH2
modifications: disulfide 2-7; N-terminus assumed
SMILES: CC[C@H](C)[C@H](NC(=O)[C@H](C)NC(=O)CNC(=O)[C@H](Cc1ccccc1)NC(=O)[C@H](CC(N)=O)NC(=O)[C@@H]1CCCN1C(=O)[C@H](CO)NC(=O)[C@H](CO)NC(=O)[C@H](Cc1c[nH]cn1)NC(=O)[C@H](CCCNC(=N)N)NC(=O)[C@H](CC(C)C)NC(=O)[C@H](Cc1ccccc1)NC(=O)[C@H](CC(N)=O)NC(=O)[C@H](C)NC(=O)[C@H](CC(C)C)NC(=O)[C@H](CCCNC(=N)N)NC(=O)[C@H](CCC(N)=O)NC(=O)[C@@H](NC(=O)[C@H](C)NC(=O)[C@@H]1CSSC[C@H](NC(=O)[C@@H](N)CCCCNC(=O)COCCOCCNC(=O)CC[C@H](NC(=O)CCCCCCCCCCCCCCCCCCC(=O)O)C(=O)O)C(=O)N[C@@H](CC(N)=O)C(=O)N[C@@H]([C@@H](C)O)C(=O)N[C@@H](C)C(=O)N[C@@H]([C@@H](C)O)C(=O)N1)[C@@H](C)O)C(=O)N1CCC[C@H]1C(=O)N[C@@H](CO)C(=O)N1CCC[C@H]1C(=O)N[C@H](C(=O)N[C@@H](CC(N)=O)C(=O)N[C@H](C(=O)NCC(=O)N1CCC[C@H]1C(=O)N[C@@H](CC(N)=O)C(=O)N[C@H](C(=O)N[C@@H](Cc1ccc(O)cc1)C(N)=O)[C@@H](C)O)C(C)C)[C@@H](C)O
notes: also called 56; compound 56
